In paper PMC2888147 (The Biochemical journal, 2010):

How the values were obtained:
[1] = target: T1, His-tagged KCNQ1 full-length C-terminus (Q1Cf, 349-676) (human, UniProt P51787 349-676); experiment: SPR
T1 sequence (looked up): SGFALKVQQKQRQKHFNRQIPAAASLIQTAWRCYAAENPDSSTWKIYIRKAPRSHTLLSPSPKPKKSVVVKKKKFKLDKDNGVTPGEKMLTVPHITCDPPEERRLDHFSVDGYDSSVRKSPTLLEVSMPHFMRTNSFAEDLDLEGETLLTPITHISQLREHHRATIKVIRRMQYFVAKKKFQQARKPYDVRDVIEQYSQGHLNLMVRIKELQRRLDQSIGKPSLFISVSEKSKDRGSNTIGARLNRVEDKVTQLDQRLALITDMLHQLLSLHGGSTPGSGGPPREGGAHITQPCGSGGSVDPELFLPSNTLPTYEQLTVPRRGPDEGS

[2] = target: T2, His-tagged KCNQ1 C-terminal fragment Q1C1 (349-480) (human, UniProt P51787 349-480); experiment: SPR
T2 sequence (looked up): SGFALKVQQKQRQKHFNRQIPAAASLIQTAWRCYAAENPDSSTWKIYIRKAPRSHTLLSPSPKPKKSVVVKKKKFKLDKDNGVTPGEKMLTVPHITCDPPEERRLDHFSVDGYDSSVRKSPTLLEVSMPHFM

B1: His-tagged KCNE1 C-terminus (E1C) (domain or fragment)
chain: not shown
**Q.** B1 was tested. Which Kd [1] did it give?
**A.** Its Kd is 3.2 ± 0.7 µM.

**Q.** And the Kd [2]?
**A.** Its Kd is 4.6 ± 1.4 µM.
